From US11059855B2, “Antimicrobial peptides and methods of making and using same” (priority 2017, dated 2021)
No end group written: not given here.

Assays:
[1] = Circular dichroism secondary structure (Dichroweb), with POPC; assay type: physicochemical
Procedure: (§1) Dichroweb software analyzes the secondary structure of LDKA peptides from circular dichroism spectroscope. The table presents the percentage of each helix and strand structure at different temperature. The data are analyzed using CONTIN-LL method and Reference Set 4 (Optimised for 190-240 nm).
(§2) Peptide solutions (peptide concentration is 50 μM) were titrated with POPC and POPG LUVs (50, 100, 250, 500, 1000 μM) and the corresponding changes CD spectra collected. Analysis of these spectra using CD tools and Dichroweb provides an ensemble average of the changes in secondary structure in the presence of POPC and POPG LUVs (dichroweb.cryst.bbk.ac.uk), which gives a direct measure of the binding free energies for each peptide.

[2] = 3-kDa dextran macromolecule release assay, POPG; assay type: biochemical; settings: P:L = 1:1000, pH 7 phosphate buffer
[3] = Circular dichroism secondary structure (Dichroweb), with POPG; assay type: physicochemical
Procedure: as §1, §2

[4] = Tryptophan fluorescent binding assay
From the text: To further investigate why some peptides (i.e. 7D12, 7G6, 11D12, 24F1, and 28H6) show selectivity for membrane types we measured peptide binding and secondary structural changes to vesicles containing binary mixtures of POPC and POPG lipids. FIGS. 10a-10e show the changes in the CD and tryptophan fluorescence spectra for these peptides upon addition of LUVs for whom the ratio of POPG was elevated from 0 to 100%. […] Consistent with the POPC/POPG leakage assay, these lipid selective peptides show little or no binding to POPC, which bind strongly to POPG. […] All other peptides have tryptophan fluorescence peaks around 350 nm, indicative of monomeric peptides. Addition of LUVs to 28H6 results in higher intensity and smaller width of the peak indicative of membrane binding. Remarkably, the CD spectra of 28H6 change from a helical aggregate in solution or POPC LUVs, to beta-strand conformations in the presence of anionic POPG lipids. Increasing the temperature of 28H6 with POPG vesicles can destabilize the beta-strand structure and reverse it to helix as the conformation of 28H6 with POPC (Table 8).

[5] = ANTS/DPX leakage assay, POPC; assay type: biochemical; settings: P:L = 1:1000, pH 7 phosphate buffer
Procedure: (§3) 5 mM ANTS and 12.5 mM DPX were entrapped in 0.1 μm diameter extruded vesicles with lipids. Gel filtration chromatography of Sephadex G-100 (GE Healthcare Life Sciences Inc.) was used to remove external free ANTS/DPX from LUVs with entrapped contents. […] Leakage was measured after 3 hr incubation. 10% Triton was used as the positive control to measure the maximum leakage of the vesicle. Fluorescence emission spectra were recorded using excitation wavelength (Ex: 350 nm) and emission wavelength (Em: 510 nm) for ANTS/DPX using Synergy H1 Hybrid Multi-Mode Reader.
(§4) This detects and quantifies the release of a small fluorescent dye (ANTS/DPX; MW=˜400 Da) encapsulated in LUVs after addition of library peptides. Neutral POPC LUVs serve as a simple model for mammalian membranes, while charged POPG LUVs mimic bacterial membranes enriched in anionic lipids.

[6] = pH 7.1; cited from earlier work
[7] = test system: methicillin-resistant Staphylococcus aureus (MRSA); assay type: cell-based; settings: 75 μM maximum tested; NDA = not determinable
[8] = ANTS/DPX leakage assay, POPG; assay type: biochemical; settings: P:L = 1:1000, pH 7 phosphate buffer
Procedure: as §3, §4

[9] = Membrane selectivity from high-throughput dye leakage screen; assay type: biochemical; settings: PC = POPC, PG = POPG
From the text: as §4

P. aeruginosa = experiment: Bacterial minimum inhibitory concentration (MIC), P. aeruginosa; assay type: cell-based, Pseudomonas aeruginosa; settings: 75 μM maximum tested; NDA = not determinable
Procedure: (§5) Escherichia colt strain ATCC 25922, Staphylococcus aureus strain ATCC 25923, and Pseudomonas aeruginosa strain ATCC PAO1 were used in this study. Overnight cultures were subcultured to log phase (OD600=0.3-0.6) after which cell counts were determined by measuring the OD600 (OD600 1.0=1.5×10^8 CFU/mL for S. aureus, 5×10^8 CFU/mL for E. colt, and 2.04×10^8 CFU/mL for P. aeruginosa). Bacteria in minimal media mere added to serially diluted peptides and incubated for 3 hr, followed by the addition of full growth media. After overnight incubation, the optical density of the wells was recorded on a plate reader to determine whether they were sterilized (OD<0.08) or were at stationary phase growth (OD600>0.5). Intermediate values, which were rare, were considered positive for growth. Average minimum sterilizing concentrations were calculated from the lowest peptide concentration that sterilized the bacteria in each serial dilution. The samples were done in sextuplet.

[10] = Circular dichroism secondary structure (Dichroweb), peptide only; assay type: physicochemical; settings: 20 °C
Procedure: as §1, §2

S. aureus = experiment: Bacterial minimum inhibitory concentration (MIC), S. aureus; assay type: cell-based, Staphylococcus aureus; settings: 75 μM maximum tested; NDA = not determinable
Procedure: as §5

[11] = Pore-size characterization by 3-kDa dextran release; assay type: biochemical; settings: ‡Large pore for PG only
From the text: Eight LDKA peptides with different lipid selectivity and pore sizes were selected from the high-throughput screen and sequenced. […] The most common mutation is L to A, occurred 13 times and in 7 out of the 8 peptides, followed by A to L, which occurred 6 times in 5 peptides, L to D which occurred 3 times in 3 peptides, and L to P that occurred once. Lysine (K) is not favorable to be shown at the position 6, 8, 10, 12, and 13, which is the non-polar face of the helical structure. […] More specifically, the analogs only induce leakage from anionic POPG vesicles have 4-5 leucines, which is less than the analogs that can porate both POPC and POPG vesicles and have 6-7 leucines in their sequences.

## GLLDDAKLLAKLAGW-AMIDE (GLLDDAKLLAKLAGW-NH2) [Peptide 7D12]
[1]; 20 °C
  Peptide-POPC, Helix: 30%
  Peptide-POPC, Strand: 20%
[1]; 45 °C
  Peptide-POPC, Helix: 26%
  Peptide-POPC, Strand: 21%
[1]; 70 °C
  Peptide-POPC, Helix: 27%
  Peptide-POPC, Strand: 22%
[1]; 95 °C
  Peptide-POPC, Helix: 22%
  Peptide-POPC, Strand: 24%
[2]
  3-kDa Dextran release, POPG: 17%
[3]; 20 °C
  Peptide-POPG, Helix: 78%
  Peptide-POPG, Strand: 2%
[3]; 45 °C
  Peptide-POPG, Helix: 66%
  Peptide-POPG, Strand: 3%
[3]; 70 °C
  Peptide-POPG, Helix: 48%
  Peptide-POPG, Strand: 6%
[3]; 95 °C
  Peptide-POPG, Helix: 31%
  Peptide-POPG, Strand: 13%
[4]
  Binding onto POPC: does not bind
[5]
  ANTS/DPX release, POPC: 6%
[6]
  Solubility, DPBS pH 7.1: <0.1 mg/mL
[7]
  Minimum Inhibitory Concentration, MRSA: NDA
[8]
  ANTS/DPX release, POPG: 103%
[9]
  Membrane selectivity (POPC vs POPG vesicles): PG > PC
P. aeruginosa
  Minimum Inhibitory Concentration, P. aeruginosa: no activity and NDA
[10]
  Peptide-only, Strand: 11%
S. aureus
  Minimum Inhibitory Concentration, S. aureus: no activity and NDA
[11]
  Pore size: Small
